What was measured:
[1] = biological target: T1, FcγRIa extracellular domain with C-terminal His tag (human, UniProt P12314 16-292); experiment: SPR, binding relative to GpH7-A5/GpH7-B3/GpL16-k0 = 100
T1 construct: extracellular domain; soluble analyte in Biacore; also called FcgRI; not shown: His tag at the C terminus

[2] = biological target: T2, FcγRIIb extracellular domain with C-terminal His tag (human, UniProt P31994 43-217); experiment: as above
T2 construct: extracellular domain; soluble analyte in Biacore; also called FcgRIIb; not shown: His tag at the C terminus
T2 sequence (looked up): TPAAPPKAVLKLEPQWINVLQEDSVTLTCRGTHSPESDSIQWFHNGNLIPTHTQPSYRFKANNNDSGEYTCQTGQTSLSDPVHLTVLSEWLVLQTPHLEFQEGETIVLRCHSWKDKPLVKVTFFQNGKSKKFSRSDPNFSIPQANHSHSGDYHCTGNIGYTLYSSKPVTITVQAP

FcγRIa = biological target: T3, FcγRIa (human, UniProt P12314 16-292); experiment: SPR (Biacore); Ho Ab vs HoCon Ab GpH7-B3/GpL16-k0
T3 construct: extracellular domain; Soluble extracellular domain expressed in FreeStyle293 cells, used as analyte in Biacore; also called FcgRI; 1a; not shown: His tag attached to the C terminus
T3 sequence (P12314 16-292): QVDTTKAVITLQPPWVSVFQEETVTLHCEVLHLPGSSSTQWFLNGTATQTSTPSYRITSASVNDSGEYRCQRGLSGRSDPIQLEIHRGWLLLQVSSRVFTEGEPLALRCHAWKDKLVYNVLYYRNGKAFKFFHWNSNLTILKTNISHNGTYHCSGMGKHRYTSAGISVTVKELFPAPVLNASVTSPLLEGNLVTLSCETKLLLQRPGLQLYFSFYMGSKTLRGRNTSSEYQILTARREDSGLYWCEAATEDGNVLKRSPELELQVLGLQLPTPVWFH
Protocol: Analysis of interaction between objective antibody and the FcγR was carried out using Biacore T100 (GE Healthcare). HBS-EP+ (GE Healthcare) was used as the running buffer, and the measurement temperature was set to 25° C. Chips produced by immobilizing the antigen peptide by the amine coupling method to a Series S Sencor Chip CM5 (GE Healthcare), or alternatively, chips produced by allowing preliminarily biotinylated antigen peptides to interact with and immobilize onto a Series S Sensor Chip SA (certified) (GE Healthcare) were used. Antibodies of interest were captured onto an antigen peptide-immobilized chip, and allowed to interact to each FcγR diluted with running buffer. To regenerate and repeatedly use the chip, the antibodies captured on the chip were washed off by reacting 10 mM glycine-HCl, pH 1.5.

T1 sequence (P12314 16-292): as above

B1: GpH7-A5/GpH7-B3 variant S324_14T/GpL16-k0 (antibody, human IgG1, kappa)
heavy 1: not shown
heavy 2: not shown
light: DIVMTQSPLSLPVTPGEPASISCQASESLVHSNRNTYLHWYLQKPGQSPQLLIYKVSNRFSGVPDRFSGSGSGTDFTLKISRVEAEDVGVYYCSQNTHVPPTFGQGTKVEIERTVAAPSVFIFPPSDEQLKSGTASVVCLLNNFYPREAKVQWKVDNALQSGNSQESVTEQDSKDSTYSLSSTLTLSKADYEKHKVYACEVTHQGLSSPVTKSFNRGEC
notes: change in the GpH7-B3 H chain only; also called He Ab
He/Con_1a [1]: 121 % of control
He/Con_2b [2]: 88.4 % of control

B2: GpH7-B3 variant S298_11K/GpL16-k0 (antibody, human IgG1, kappa)
heavy: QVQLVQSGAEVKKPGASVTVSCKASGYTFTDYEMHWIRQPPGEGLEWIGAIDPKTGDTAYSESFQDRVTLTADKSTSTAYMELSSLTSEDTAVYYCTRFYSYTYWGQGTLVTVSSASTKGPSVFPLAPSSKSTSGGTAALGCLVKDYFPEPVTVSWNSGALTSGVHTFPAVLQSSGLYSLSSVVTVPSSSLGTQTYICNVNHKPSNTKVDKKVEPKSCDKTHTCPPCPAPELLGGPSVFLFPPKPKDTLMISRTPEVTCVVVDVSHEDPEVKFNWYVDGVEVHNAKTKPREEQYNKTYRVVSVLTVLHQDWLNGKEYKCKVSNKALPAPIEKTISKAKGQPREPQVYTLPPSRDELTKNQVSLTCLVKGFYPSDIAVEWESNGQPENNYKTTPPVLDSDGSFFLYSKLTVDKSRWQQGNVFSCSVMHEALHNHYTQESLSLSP
light: DIVMTQSPLSLPVTPGEPASISCQASESLVHSNRNTYLHWYLQKPGQSPQLLIYKVSNRFSGVPDRFSGSGSGTDFTLKISRVEAEDVGVYYCSQNTHVPPTFGQGTKVEIERTVAAPSVFIFPPSDEQLKSGTASVVCLLNNFYPREAKVQWKVDNALQSGNSQESVTEQDSKDSTYSLSSTLTLSKADYEKHKVYACEVTHQGLSSPVTKSFNRGEC
notes: also called Ho Ab S298_11K
Ho/Con_1a (FcγRIa): 90.4 relative binding, control = 100

B3: GpH7-A5/GpH7-B3 variant S324_18N/GpL16-k0 (antibody, human IgG1, kappa)
heavy 1: not shown
heavy 2: not shown
light: DIVMTQSPLSLPVTPGEPASISCQASESLVHSNRNTYLHWYLQKPGQSPQLLIYKVSNRFSGVPDRFSGSGSGTDFTLKISRVEAEDVGVYYCSQNTHVPPTFGQGTKVEIERTVAAPSVFIFPPSDEQLKSGTASVVCLLNNFYPREAKVQWKVDNALQSGNSQESVTEQDSKDSTYSLSSTLTLSKADYEKHKVYACEVTHQGLSSPVTKSFNRGEC
notes: as for B1
He/Con_1a [1]: 116 % of control
He/Con_2b [2]: 81.1 % of control

B4: GpH7-B3 variant P271_12R/GpL16-k0 (antibody, human IgG1, kappa)
heavy: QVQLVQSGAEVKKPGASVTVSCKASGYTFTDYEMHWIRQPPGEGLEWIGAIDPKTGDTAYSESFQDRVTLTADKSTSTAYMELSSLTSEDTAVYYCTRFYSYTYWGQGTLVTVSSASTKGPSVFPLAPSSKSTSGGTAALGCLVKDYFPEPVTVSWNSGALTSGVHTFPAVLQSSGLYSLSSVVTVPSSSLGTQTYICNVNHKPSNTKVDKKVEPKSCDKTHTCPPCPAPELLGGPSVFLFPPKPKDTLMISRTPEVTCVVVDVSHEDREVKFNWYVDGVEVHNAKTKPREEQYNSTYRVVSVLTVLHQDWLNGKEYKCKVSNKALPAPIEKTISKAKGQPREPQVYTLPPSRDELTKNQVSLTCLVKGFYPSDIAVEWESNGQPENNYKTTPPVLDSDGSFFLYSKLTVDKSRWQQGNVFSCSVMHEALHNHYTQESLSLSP
light: DIVMTQSPLSLPVTPGEPASISCQASESLVHSNRNTYLHWYLQKPGQSPQLLIYKVSNRFSGVPDRFSGSGSGTDFTLKISRVEAEDVGVYYCSQNTHVPPTFGQGTKVEIERTVAAPSVFIFPPSDEQLKSGTASVVCLLNNFYPREAKVQWKVDNALQSGNSQESVTEQDSKDSTYSLSSTLTLSKADYEKHKVYACEVTHQGLSSPVTKSFNRGEC
notes: also called Ho Ab P271_12R
Ho/Con_1a (FcγRIa): 101 relative binding, control = 100

B5: GpH7-A5/GpH7-B3 variant T335_11K/GpL16-k0 (antibody, human IgG1, kappa)
heavy 1: not shown
heavy 2: not shown
light: DIVMTQSPLSLPVTPGEPASISCQASESLVHSNRNTYLHWYLQKPGQSPQLLIYKVSNRFSGVPDRFSGSGSGTDFTLKISRVEAEDVGVYYCSQNTHVPPTFGQGTKVEIERTVAAPSVFIFPPSDEQLKSGTASVVCLLNNFYPREAKVQWKVDNALQSGNSQESVTEQDSKDSTYSLSSTLTLSKADYEKHKVYACEVTHQGLSSPVTKSFNRGEC
notes: as for B1
He/Con_1a [1]: 111 % of control
He/Con_2b [2]: 91 % of control

B6: GpH7-B3 variant P271_06M/GpL16-k0 (antibody, human IgG1, kappa)
heavy: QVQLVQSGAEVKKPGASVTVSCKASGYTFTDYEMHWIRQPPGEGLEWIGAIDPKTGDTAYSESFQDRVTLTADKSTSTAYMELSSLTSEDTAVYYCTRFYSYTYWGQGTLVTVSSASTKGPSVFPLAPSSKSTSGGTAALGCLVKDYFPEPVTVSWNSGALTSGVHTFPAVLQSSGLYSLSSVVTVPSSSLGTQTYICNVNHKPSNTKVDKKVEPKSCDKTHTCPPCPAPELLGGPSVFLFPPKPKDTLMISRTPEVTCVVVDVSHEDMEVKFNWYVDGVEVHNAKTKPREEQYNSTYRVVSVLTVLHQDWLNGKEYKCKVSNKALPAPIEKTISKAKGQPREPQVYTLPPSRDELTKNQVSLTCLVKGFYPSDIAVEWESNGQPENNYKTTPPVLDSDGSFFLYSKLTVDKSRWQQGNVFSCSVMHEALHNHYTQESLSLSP
light: DIVMTQSPLSLPVTPGEPASISCQASESLVHSNRNTYLHWYLQKPGQSPQLLIYKVSNRFSGVPDRFSGSGSGTDFTLKISRVEAEDVGVYYCSQNTHVPPTFGQGTKVEIERTVAAPSVFIFPPSDEQLKSGTASVVCLLNNFYPREAKVQWKVDNALQSGNSQESVTEQDSKDSTYSLSSTLTLSKADYEKHKVYACEVTHQGLSSPVTKSFNRGEC
notes: also called Ho Ab P271_06M
Ho/Con_1a (FcγRIa): 102 relative binding, control = 100

B7: GpH7-A5/GpH7-B3 variant T335_06M/GpL16-k0 (antibody, human IgG1, kappa)
heavy 1: not shown
heavy 2: not shown
light: DIVMTQSPLSLPVTPGEPASISCQASESLVHSNRNTYLHWYLQKPGQSPQLLIYKVSNRFSGVPDRFSGSGSGTDFTLKISRVEAEDVGVYYCSQNTHVPPTFGQGTKVEIERTVAAPSVFIFPPSDEQLKSGTASVVCLLNNFYPREAKVQWKVDNALQSGNSQESVTEQDSKDSTYSLSSTLTLSKADYEKHKVYACEVTHQGLSSPVTKSFNRGEC
notes: as for B1
He/Con_1a [1]: 107 % of control
He/Con_2b [2]: 99.4 % of control

B8: GpH7-B3 variant P271_13S/GpL16-k0 (antibody, human IgG1, kappa)
heavy: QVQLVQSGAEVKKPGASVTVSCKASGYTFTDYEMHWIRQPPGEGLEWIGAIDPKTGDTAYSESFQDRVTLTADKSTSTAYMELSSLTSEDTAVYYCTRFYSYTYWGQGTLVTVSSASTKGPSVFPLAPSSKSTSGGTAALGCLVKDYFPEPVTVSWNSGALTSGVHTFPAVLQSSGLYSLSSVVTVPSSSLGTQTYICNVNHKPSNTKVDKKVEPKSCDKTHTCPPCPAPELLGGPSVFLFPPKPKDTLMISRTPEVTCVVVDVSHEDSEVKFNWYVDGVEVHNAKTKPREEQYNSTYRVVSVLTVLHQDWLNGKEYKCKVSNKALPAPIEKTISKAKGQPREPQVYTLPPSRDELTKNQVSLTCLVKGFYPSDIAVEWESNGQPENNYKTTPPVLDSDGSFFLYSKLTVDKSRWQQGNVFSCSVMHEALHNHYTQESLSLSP
light: DIVMTQSPLSLPVTPGEPASISCQASESLVHSNRNTYLHWYLQKPGQSPQLLIYKVSNRFSGVPDRFSGSGSGTDFTLKISRVEAEDVGVYYCSQNTHVPPTFGQGTKVEIERTVAAPSVFIFPPSDEQLKSGTASVVCLLNNFYPREAKVQWKVDNALQSGNSQESVTEQDSKDSTYSLSSTLTLSKADYEKHKVYACEVTHQGLSSPVTKSFNRGEC
notes: also called Ho Ab P271_13S
Ho/Con_1a (FcγRIa): 101 relative binding, control = 100

B9: GpH7-A5/GpH7-B3 variant T335_01G/GpL16-k0 (antibody, human IgG1, kappa)
heavy 1: not shown
heavy 2: not shown
light: DIVMTQSPLSLPVTPGEPASISCQASESLVHSNRNTYLHWYLQKPGQSPQLLIYKVSNRFSGVPDRFSGSGSGTDFTLKISRVEAEDVGVYYCSQNTHVPPTFGQGTKVEIERTVAAPSVFIFPPSDEQLKSGTASVVCLLNNFYPREAKVQWKVDNALQSGNSQESVTEQDSKDSTYSLSSTLTLSKADYEKHKVYACEVTHQGLSSPVTKSFNRGEC
notes: as for B1
He/Con_1a [1]: 104 % of control
He/Con_2b [2]: 96.7 % of control

— patent US20150344570A1 (published 2015)
